Reference: US20220010021A1 (Sanofi, published 2022)

T1: human beta-Klotho (KLB) (human, UniProt Q86Z14 53-997)
T1 construct: also called human KLB
T1 sequence (looked up): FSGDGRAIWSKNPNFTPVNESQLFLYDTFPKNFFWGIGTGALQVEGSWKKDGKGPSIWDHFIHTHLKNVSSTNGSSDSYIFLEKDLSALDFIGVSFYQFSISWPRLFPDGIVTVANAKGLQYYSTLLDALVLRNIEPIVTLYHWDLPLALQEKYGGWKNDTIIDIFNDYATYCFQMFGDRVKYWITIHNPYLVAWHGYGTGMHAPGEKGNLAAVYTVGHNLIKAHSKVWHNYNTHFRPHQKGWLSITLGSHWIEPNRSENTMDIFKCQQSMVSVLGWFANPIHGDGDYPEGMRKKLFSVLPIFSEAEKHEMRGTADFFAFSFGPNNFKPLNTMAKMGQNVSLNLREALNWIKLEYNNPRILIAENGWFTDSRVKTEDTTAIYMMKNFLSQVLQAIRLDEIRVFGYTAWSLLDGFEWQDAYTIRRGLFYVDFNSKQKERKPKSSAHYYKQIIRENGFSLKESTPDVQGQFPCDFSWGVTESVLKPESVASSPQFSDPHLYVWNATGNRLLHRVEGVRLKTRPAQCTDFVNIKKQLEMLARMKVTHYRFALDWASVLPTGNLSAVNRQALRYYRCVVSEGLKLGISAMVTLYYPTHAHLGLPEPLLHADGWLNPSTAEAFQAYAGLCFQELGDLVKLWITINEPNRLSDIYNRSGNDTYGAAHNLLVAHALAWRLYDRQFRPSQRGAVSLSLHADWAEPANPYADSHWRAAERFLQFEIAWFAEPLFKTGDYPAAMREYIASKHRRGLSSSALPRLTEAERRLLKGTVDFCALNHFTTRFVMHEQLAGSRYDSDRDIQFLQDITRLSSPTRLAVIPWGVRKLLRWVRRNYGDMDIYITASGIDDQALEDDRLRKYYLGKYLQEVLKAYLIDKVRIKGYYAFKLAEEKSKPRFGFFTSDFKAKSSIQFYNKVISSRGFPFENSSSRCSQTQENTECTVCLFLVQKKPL


Tests used:
[1] = target: human FGFR1c/KLB cell surface receptor complex on iLite FGF21 reporter cells (human, UniProt P11362 22-822; Q86Z14 1-1044); test: cell-based or functional assay
human beta-Klotho (KLB) = target: T1, human beta-Klotho (KLB); test: BLI off-rate screen (Octet), Ab captured via Fc;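 note: antibody supernatants applied at 25 µg/mL, dissociation monitored over 1800 s in D-PBS with 0.1% BSA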

Sequence of human FGFR1c/KLB cell surface receptor complex on iLite FGF21 reporter cells (P11362 22-822, chain 1 of 2): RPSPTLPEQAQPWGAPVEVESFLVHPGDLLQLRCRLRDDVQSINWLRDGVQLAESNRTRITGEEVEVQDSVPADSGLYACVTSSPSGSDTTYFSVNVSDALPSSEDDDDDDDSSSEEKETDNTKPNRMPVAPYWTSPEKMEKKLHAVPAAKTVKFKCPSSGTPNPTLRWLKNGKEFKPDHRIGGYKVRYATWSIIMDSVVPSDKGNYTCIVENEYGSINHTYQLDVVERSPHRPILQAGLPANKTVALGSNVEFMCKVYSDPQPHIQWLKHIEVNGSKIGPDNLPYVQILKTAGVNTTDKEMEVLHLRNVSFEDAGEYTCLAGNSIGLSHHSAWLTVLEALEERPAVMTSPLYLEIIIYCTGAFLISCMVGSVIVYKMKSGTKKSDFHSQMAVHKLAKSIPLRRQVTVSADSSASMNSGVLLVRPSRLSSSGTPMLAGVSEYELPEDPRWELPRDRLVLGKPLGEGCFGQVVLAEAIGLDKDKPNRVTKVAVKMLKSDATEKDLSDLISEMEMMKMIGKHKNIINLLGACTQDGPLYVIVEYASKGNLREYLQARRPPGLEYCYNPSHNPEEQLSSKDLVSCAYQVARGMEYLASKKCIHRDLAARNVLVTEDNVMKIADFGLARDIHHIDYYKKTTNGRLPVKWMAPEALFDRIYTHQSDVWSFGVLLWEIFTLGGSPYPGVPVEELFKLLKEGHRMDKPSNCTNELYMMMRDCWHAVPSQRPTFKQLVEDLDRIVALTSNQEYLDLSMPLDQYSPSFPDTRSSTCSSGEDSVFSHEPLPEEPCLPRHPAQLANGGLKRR
Sequence of human FGFR1c/KLB cell surface receptor complex on iLite FGF21 reporter cells (Q86Z14 whole entry, chain 2 of 2): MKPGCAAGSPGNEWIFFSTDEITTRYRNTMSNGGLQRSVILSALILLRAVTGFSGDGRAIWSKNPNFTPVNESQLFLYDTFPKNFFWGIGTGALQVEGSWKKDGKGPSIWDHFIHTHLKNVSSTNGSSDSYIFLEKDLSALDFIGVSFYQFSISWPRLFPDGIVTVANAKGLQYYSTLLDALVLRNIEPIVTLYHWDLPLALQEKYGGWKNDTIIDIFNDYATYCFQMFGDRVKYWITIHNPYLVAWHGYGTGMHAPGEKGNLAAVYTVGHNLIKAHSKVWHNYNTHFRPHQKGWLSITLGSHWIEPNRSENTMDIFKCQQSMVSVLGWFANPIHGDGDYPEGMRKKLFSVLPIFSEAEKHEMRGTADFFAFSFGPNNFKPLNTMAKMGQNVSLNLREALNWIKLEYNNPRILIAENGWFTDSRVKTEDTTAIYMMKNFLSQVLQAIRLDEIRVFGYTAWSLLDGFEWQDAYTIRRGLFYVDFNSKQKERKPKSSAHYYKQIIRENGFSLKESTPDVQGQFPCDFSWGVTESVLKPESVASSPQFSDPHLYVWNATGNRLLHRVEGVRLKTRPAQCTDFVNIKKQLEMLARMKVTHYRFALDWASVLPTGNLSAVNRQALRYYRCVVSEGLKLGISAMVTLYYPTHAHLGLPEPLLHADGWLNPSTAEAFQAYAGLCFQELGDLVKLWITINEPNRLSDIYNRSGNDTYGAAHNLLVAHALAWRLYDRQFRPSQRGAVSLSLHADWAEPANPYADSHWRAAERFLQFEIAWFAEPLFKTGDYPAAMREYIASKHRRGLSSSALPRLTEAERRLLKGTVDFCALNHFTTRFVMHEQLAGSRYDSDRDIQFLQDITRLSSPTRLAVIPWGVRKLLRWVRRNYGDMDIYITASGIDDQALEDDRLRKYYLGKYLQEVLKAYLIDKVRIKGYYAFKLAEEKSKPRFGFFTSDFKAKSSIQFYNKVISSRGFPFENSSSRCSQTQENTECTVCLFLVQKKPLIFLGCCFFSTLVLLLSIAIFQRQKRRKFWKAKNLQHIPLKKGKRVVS

Binder | Mean E max (%) [1] [%] | Mean EC50 [1] [nM] | koff (human beta-Klotho (KLB)) [s⁻¹]
16H7 variant, light chain G24V (antibody, human IgG4 S228P, lambda, V domains shown, IgG4 backbone) VH: not shown VL: SYVLTQPPSVSVAPGQTARITCGVNNIGSESVHWYQQKPGQAPVLVVYDDSDRPSGIPERFSGSNSGNTATLTISRVEAGDEADYYCQVWDGNSDHVVFGGGTKLTVLG | 102 | 0.125 | 8.5e-05
16H7 variant, light chain N25I (antibody, human IgG4 S228P, lambda, V domains shown, IgG4 backbone) VH: not shown VL: SYVLTQPPSVSVAPGQTARITCGGINIGSESVHWYQQKPGQAPVLVVYDDSDRPSGIPERFSGSNSGNTATLTISRVEAGDEADYYCQVWDGNSDHVVFGGGTKLTVLG | 104 | 0.122 | 2.2e-05
16H7 variant, light chain N25M (antibody, human IgG4 S228P, lambda, V domains shown, IgG4 backbone) VH: not shown VL: SYVLTQPPSVSVAPGQTARITCGGMNIGSESVHWYQQKPGQAPVLVVYDDSDRPSGIPERFSGSNSGNTATLTISRVEAGDEADYYCQVWDGNSDHVVFGGGTKLTVLG | 102 | 0.131 | 3.1e-06
16H7 variant, light chain I27G (antibody, IgG4, V domains shown, IgG4 backbone; copies: 2 + 2) VH: not shown VL: SYVLTQPPSVSVAPGQTARITCGGNNGGSESVHWYQQKPGQAPVLVVYDDSDRPSGIPERFSGSNSGNTATLTISRVEAGDEADYYCQVWDGNSDHVVFGGGTKLTVLG | 111 | 0.123 | 3e-05
16H7 variant, light chain I27K (antibody, IgG4, V domains shown, IgG4 backbone; copies: 2 + 2) VH: not shown VL: SYVLTQPPSVSVAPGQTARITCGGNNKGSESVHWYQQKPGQAPVLVVYDDSDRPSGIPERFSGSNSGNTATLTISRVEAGDEADYYCQVWDGNSDHVVFGGGTKLTVLG | 99 | 0.127 | 5.3e-05
16H7 variant, light chain N25E (antibody, human IgG4 S228P, lambda, V domains shown, IgG4 backbone) VH: not shown VL: SYVLTQPPSVSVAPGQTARITCGGENIGSESVHWYQQKPGQAPVLVVYDDSDRPSGIPERFSGSNSGNTATLTISRVEAGDEADYYCQVWDGNSDHVVFGGGTKLTVLG | 106 | 0.107 | 3e-05
16H7 variant, light chain N25R (antibody, human IgG4 S228P, lambda, V domains shown, IgG4 backbone) VH: not shown VL: SYVLTQPPSVSVAPGQTARITCGGRNIGSESVHWYQQKPGQAPVLVVYDDSDRPSGIPERFSGSNSGNTATLTISRVEAGDEADYYCQVWDGNSDHVVFGGGTKLTVLG | 104 | 0.178 | 4.1e-05
16H7 variant, light chain N25P (antibody, human IgG4 S228P, lambda, V domains shown, IgG4 backbone) VH: not shown VL: SYVLTQPPSVSVAPGQTARITCGGPNIGSESVHWYQQKPGQAPVLVVYDDSDRPSGIPERFSGSNSGNTATLTISRVEAGDEADYYCQVWDGNSDHVVFGGGTKLTVLG | 106 | 0.132 | 1.2e-05
16H7 variant, light chain N25T (antibody, human IgG4 S228P, lambda, V domains shown, IgG4 backbone) VH: not shown VL: SYVLTQPPSVSVAPGQTARITCGGTNIGSESVHWYQQKPGQAPVLVVYDDSDRPSGIPERFSGSNSGNTATLTISRVEAGDEADYYCQVWDGNSDHVVFGGGTKLTVLG | 111 | 0.117 | 2.3e-05
16H7 variant, light chain G24Y (antibody, human IgG4 S228P, lambda, V domains shown, IgG4 backbone) VH: not shown VL: SYVLTQPPSVSVAPGQTARITCGYNNIGSESVHWYQQKPGQAPVLVVYDDSDRPSGIPERFSGSNSGNTATLTISRVEAGDEADYYCQVWDGNSDHVVFGGGTKLTVLG | 107 | 0.137 | 4.1e-05
16H7 variant, light chain N25L (antibody, human IgG4 S228P, lambda, V domains shown, IgG4 backbone) VH: not shown VL: SYVLTQPPSVSVAPGQTARITCGGLNIGSESVHWYQQKPGQAPVLVVYDDSDRPSGIPERFSGSNSGNTATLTISRVEAGDEADYYCQVWDGNSDHVVFGGGTKLTVLG | 109 | 0.134 | 1.2e-05
16H7 variant, light chain N25G (antibody, human IgG4 S228P, lambda, V domains shown, IgG4 backbone) VH: not shown VL: SYVLTQPPSVSVAPGQTARITCGGGNIGSESVHWYQQKPGQAPVLVVYDDSDRPSGIPERFSGSNSGNTATLTISRVEAGDEADYYCQVWDGNSDHVVFGGGTKLTVLG | 100 | 0.118 | 3.2e-05
16H7 variant, light chain I27D (antibody, human IgG4 S228P, lambda, V domains shown, IgG4 backbone) VH: not shown VL: SYVLTQPPSVSVAPGQTARITCGGNNDGSESVHWYQQKPGQAPVLVVYDDSDRPSGIPERFSGSNSGNTATLTISRVEAGDEADYYCQVWDGNSDHVVFGGGTKLTVLG | 107 | 0.107 | 4.6e-05
16H7 variant, light chain I27E (antibody, human IgG4 S228P, lambda, V domains shown, IgG4 backbone) VH: not shown VL: SYVLTQPPSVSVAPGQTARITCGGNNEGSESVHWYQQKPGQAPVLVVYDDSDRPSGIPERFSGSNSGNTATLTISRVEAGDEADYYCQVWDGNSDHVVFGGGTKLTVLG | 98 | 0.121 | 4.6e-05
16H7 variant, light chain N25Q (antibody, human IgG4 S228P, lambda, V domains shown, IgG4 backbone) VH: not shown VL: SYVLTQPPSVSVAPGQTARITCGGQNIGSESVHWYQQKPGQAPVLVVYDDSDRPSGIPERFSGSNSGNTATLTISRVEAGDEADYYCQVWDGNSDHVVFGGGTKLTVLG | 102 | 0.096 | 1e-07
16H7 variant, light chain N25K (antibody, human IgG4 S228P, lambda, V domains shown, IgG4 backbone) VH: not shown VL: SYVLTQPPSVSVAPGQTARITCGGKNIGSESVHWYQQKPGQAPVLVVYDDSDRPSGIPERFSGSNSGNTATLTISRVEAGDEADYYCQVWDGNSDHVVFGGGTKLTVLG | 110 | 0.182 | 3.3e-05
16H7 variant, light chain N25S (antibody, human IgG4 S228P, lambda, V domains shown, IgG4 backbone) VH: not shown VL: SYVLTQPPSVSVAPGQTARITCGGSNIGSESVHWYQQKPGQAPVLVVYDDSDRPSGIPERFSGSNSGNTATLTISRVEAGDEADYYCQVWDGNSDHVVFGGGTKLTVLG | 98 | 0.131 | 4.4e-05
16H7 variant, light chain I27S (antibody, human IgG4 S228P, lambda, V domains shown, IgG4 backbone) VH: not shown VL: SYVLTQPPSVSVAPGQTARITCGGNNSGSESVHWYQQKPGQAPVLVVYDDSDRPSGIPERFSGSNSGNTATLTISRVEAGDEADYYCQVWDGNSDHVVFGGGTKLTVLG | 106 | 0.141 | 4.9e-05
16H7 variant, light chain N25H (antibody, human IgG4 S228P, lambda, V domains shown, IgG4 backbone) VH: not shown VL: SYVLTQPPSVSVAPGQTARITCGGHNIGSESVHWYQQKPGQAPVLVVYDDSDRPSGIPERFSGSNSGNTATLTISRVEAGDEADYYCQVWDGNSDHVVFGGGTKLTVLG | 106 | 0.137 | 3e-05
16H7 variant, light chain N25A (antibody, human IgG4 S228P, lambda, V domains shown, IgG4 backbone) VH: not shown VL: SYVLTQPPSVSVAPGQTARITCGGANIGSESVHWYQQKPGQAPVLVVYDDSDRPSGIPERFSGSNSGNTATLTISRVEAGDEADYYCQVWDGNSDHVVFGGGTKLTVLG | 96 | 0.081 | 1.6e-05
16H7 variant, light chain N25C (antibody, human IgG4 S228P, lambda, V domains shown, IgG4 backbone) VH: not shown VL: SYVLTQPPSVSVAPGQTARITCGGCNIGSESVHWYQQKPGQAPVLVVYDDSDRPSGIPERFSGSNSGNTATLTISRVEAGDEADYYCQVWDGNSDHVVFGGGTKLTVLG | 110 | 0.133 | 3.6e-06
16H7 variant, light chain G24W (antibody, human IgG4 S228P, lambda, V domains shown, IgG4 backbone) VH: not shown VL: SYVLTQPPSVSVAPGQTARITCGWNNIGSESVHWYQQKPGQAPVLVVYDDSDRPSGIPERFSGSNSGNTATLTISRVEAGDEADYYCQVWDGNSDHVVFGGGTKLTVLG | 110 | 0.145 | 3.7e-05
16H7 variant, light chain I27L (antibody, IgG4, V domains shown, IgG4 backbone; copies: 2 + 2) VH: not shown VL: SYVLTQPPSVSVAPGQTARITCGGNNLGSESVHWYQQKPGQAPVLVVYDDSDRPSGIPERFSGSNSGNTATLTISRVEAGDEADYYCQVWDGNSDHVVFGGGTKLTVLG | 110 | 0.124 | 6.2e-05
